# According to patent publication US20110027291A1, “METHODS, SYSTEMS AND PRODUCTS FOR PREDICTING RESPONSE OF TUMOR CELLS TO A THERAPEUTIC AGENT AND TREATING A PATIENT ACCORDING TO THE PREDICTED RESPONSE” (MERRIMACK PHARMACEUTICALS, INC., priority 2008, published 2011):
# B1: amphiregulin (ligand, UniProt P15514 101-198, looked up)
# chain: SVRVEQVVKPPQNKTESENTSDKPKRKKKGGKNGKNRRNRKKKNPCNAEFQNFCIHGECKYIEHLEAVTCKCQQEYFGERCGEKSMKTHSMIDSSLSK
# B2: Epigen (ligand, UniProt Q6UW88 24-104, looked up)
# chain: AVTVTPPITAQQGNWTVNKTEADNIEGPIALKFSHLCLEDHNSYCINGACAFHHELEKAICRCFTGYTGERCEHLTLTSYA
# B3: heregulin HRG1-β (ligand, UniProt Q02297-6 177-241, looked up)
# chain: SHLVKCAEKEKTFCVNGGECFMVKDLSNPSRYLCKCPNEFTGDRCQNYVMASFYKHLGIEFMEAE
# Assays:
# [1] = system: AKT phosphorylation (pAKT) in NCI-ADRr cells; assay: AKT phosphorylation dose response curves for ErbB ligands (ELISA); format: cell-based
# Procedure: (§1) For stimulation of the cells, the cells are seeded in 100 μl complete media at 35,000 cells per well in 96 well tissue culture plates and incubated overnight in a humidified atmosphere of 5% CO2, 95% air and 37 degrees Celsius. Cells are then switched to serum free media: RPMI-1640 media (Gibco) supplemented with, 2 mM L-glutamine (Gibco) and units/mL Pen-Strep (Gibco). Starved cells are incubated in a humidified atmosphere of 5% CO2, 95% air and 37 degrees Celsius for 20-24 hours prior to stimulation.
# (§2) Levels of protein phosphorylation in the stimulated cells are measured by ELISA. Capture antibodies against ErbB1 (R&D Systems, AF231), ErbB2 (R&D Systems, MAB1129), ErbB3 (R&D Systems, MAB3481) and AKT (Upstate, 05-591MG) are incubated in 384 well black flat-bottom polystyrene high-binding plates (Corning, Catalog #3708) overnight at room temperature. The ELISA plates are blocked with 2% bovine serum albumin (BSA) and phosphate buffered saline (PBS) for one hour then incubated with lysates diluted in 2% BSA, 0.1% Tween-20 and PBS for two hours at room temp. In between each incubation, the plates are washed three times with 0.05% Tween-20 in PBS. ELISAs for measuring phospho-ErbB1, -ErbB2 and -ErbB3 are incubated with phospho-tyrosine horseradish peroxidase (HRP) linked monoclonal antibody (R&D Systems, HAM 1676) for two hours. ELISAs measuring phospho-AKT are incubated with primary serine 473 specific anti-phospho AKT mouse monoclonal antibody (Cell Signaling Technologies, Catalog #5102) for 2 hours, then incubated with Streptavidin-HRP(R&D Systems, Catalog #DY998) for 30 minutes. All ELISAs are visualized with SuperSignal ELISA Pico Chemiluminescent Substrate (Pierce, Catalog #37069) and luminescent signal is measured using a luminometer.
# [2] = target: T1, ErbB1 phosphorylation (pErbB1) in NCI-ADRr cells (Homo sapiens, UniProt P00533); assay: ErbB1 phosphorylation dose response curves for ErbB ligands (ELISA); format: cell-based
# T1 construct: endogenous in cells; host or cells: NCI-ADRr (ADRr) cells
# Procedure: as §1, §2
# [3] = system: ErbB2 phosphorylation (pErbB2) in NCI-ADRr cells; assay: ErbB2 phosphorylation dose response curves for ErbB ligands (ELISA); format: cell-based
# Procedure: as §1, §2
# [4] = system: ErbB3 phosphorylation (pErbB3) in NCI-ADRr cells; assay: ErbB3 phosphorylation dose response curves for ErbB ligands (ELISA); format: cell-based
# Procedure: as §1, §2
# [5] = target: ErbB1 (Homo sapiens, UniProt P00533); assay: ErbB signaling computational model: BTC ligand binding parameters; conditions: model parameter
# From the text: (§3) The ErbB receptor signaling network model consists of three receptors (ErbB1, ErbB2, ErbB3), a receptor phosphatase, phosphatidylinositol 3-kinase (PI3K, which binds the receptors) and components of the PI3K-AKT cascade (phosphatidylinositol bisphosphate, PIP2, phosphoinositide-dependent protein kinase, PDK1, PTEN deleted from chromosome 10, PTEN, serine, threonine protein kinase also known as protein kinase B, AKT, Protein phosphatase 2A, PP2A) (see Table 8 below).
# (§4) Included in the model were the ligand-induced dimerization, internalization, recycling, and degradation as described in the literature for all homo- and heterodimers (Hendriks, B. S. et al. (2003) J. Biol. Chem. 278:23343-23351; Wang, Z. et al. (1999) Mol. Biol. Cell 10:1621-1636). Receptor dimer stabilities, using the relative scale as published in Shankaran, H. et al. (2008) Biochem. Biophys. Res. Commun. 371:220-224, were implemented, where the coexpression of […] biases signaling to the cell surface and retards signal downregulation and where the simultaneous coexpression of ErbB1-3 leads to an abundance of ErbB2-ErbB3 heterodimers. Therefore, ErbB3-containing dimers internalize and degrade slower than do ErbB1 homodimers or ErbB1-ErbB2 heterodimers. Constitutive dimerization was also included, although ligand-free dimers were assumed not to trigger any downstream signaling (Yu, X. et al. (2002) Mol. Biol. Cell 13:2547-2557) and to remain at the cell surface. ErbB ligands bind with different affinities to ErbB homo- and heterodimers (Teramura, Y. et al. (2006) EMBO J. 25:4215-4222), but to reduce the number of kinetic parameters to be estimated and to describe the experimental data with the simplest model possible, we constrained the binding affinity of the ligands to ErbB homo- and heterodimers to be the same.
# (§5) Many of the reaction rate parameters are unknown in the cell system we studied and therefore had to be estimated (see Table 10 below). To avoid biasing the starting point, all parameters were set to default values (Aldridge, B. B. et al. (2006) Nat. Cell. Biol. 8:1195-1203). The number of parameters estimated was limited by performing the estimation in two stages: first the model was calibrated against the experimentally observed ErbB receptor phosphorylation data; second, the parameters sensitive to AKT phosphorylation were optimized against the experimental data. Estimated values were only accepted if the parameters were constrained under multiple parameter runs using a genetic algorithm with a population size of 50 and 25 generations (Mathworks, MA). […] The normalized sensitivities of each species were integrated over the two hour stimulation, and parameters with normalized, integrated sensitivities greater than an arbitrary threshold of 1000 are listed in Table 11 below. As mentioned above, ErbB4 phosphorylation was not included into the parameter estimation because the cell line studied had barely detectable ErbB4 (see Table 3 below). ErbB4 reactions are parameterized according to ErbB3 reactions.
# [6] = target: ErbB1 on NCI-ADRr cells (UniProt P00533); assay: cell-based or functional assay
# [7] = target: T2, ErbB2 (Homo sapiens, UniProt P04626); conditions: cited from earlier work
# [8] = target: T2, ErbB2; assay: Lapatinib rate constants from the literature: ErbB2 (Table 13); format: binding
# [9] = target: ErbB3 (Homo sapiens, UniProt P21860); assay: ErbB signaling computational model: HRG ligand binding parameters; conditions: model parameter
# From the text: as §3, §4, §5
# [10] = target: ErbB3 on NCI-ADRr cells (UniProt P21860); assay: cell-based or functional assay
molecule,measurement,setting,value
"Epiregulin: epiregulin, ErbB ligand",pAKT % stimulation at 5 min relative to maximum,[1],11.0%
same,pErbB1 % stimulation at 5 min relative to maximum,[2],9.0%
same,pErbB2 % stimulation at 5 min relative to maximum,[3],18.0%
"BTC: betacellulin, ErbB ligand which binds primarily to ErbB1",EC50,[4],100 nM
same,EC50,[2],5.7 nM
same,kf3: BTC binding to E1,[5],5.00 × 10^−11 molecules-1 sec-1
same,kr3: BTC dissociation from E1,[5],0.001 s⁻¹
same,kf5: BTC binding to E1 heterodimers,[5]; E1 heterodimers,5.00 × 10^−11 molecules-1 sec-1
same,kf4: BTC binding to E1 homodimers,[5]; E1 homodimers,5.00 × 10^−11 molecules-1 sec-1
same,kf129: BTC binding in the endosome,[5]; endosome,3.8 molecules-1 sec-1
betacellulin (from UniProt P35070 32-111) (ligand),"EC50 [nM] of pErbB1 dose response, NCI-ADRr cells",[6],5.7 nM
same,"EC50 [nM] of pErbB3 dose response, NCI-ADRr cells",[6],100 nM
CS(=O)(=O)CCNCc1ccc(-c2ccc3ncnc(Nc4ccc(OCc5cccc(F)c5)c(Cl)c4)c3c2)o1 [lapatinib],Lapatinib inhibitor binding from ErbB2 or 2-3 dimers (on-rate before unit conversion),[7],Unit conversion calculated as 2.95e3 M^−1s^−1/
same,krLapatinib_2: Lapatinib inhibitor dissociation to ErbB2 or 2-3 dimers,[7],3.83e-05 s⁻¹
same,kfLapatinib_4: Lapatinib inhibitor binding to 2-2 dimers,[8]; 2-2 dimers,3.00E−12 molecules^−1 sec^−1
same,kfLapatinib_2: Lapatinib inhibitor binding from ErbB2 or 2-3 dimers,[8]; unit conversion from M^−1s^−1 /(Vmedia * Av/Num_cells),1.50E−12 molecules^−1 sec^−1
transforming growth factor alpha (from UniProt P01135 40-89) (ligand),"EC50 [nM] of pErbB1 dose response, NCI-ADRr cells",[6],30 nM
"AR: amphiregulin, ErbB1 binding ligand",EC50,[4],380 nM
same,pErbB3 % stimulation at 5 min relative to maximum,[4],17.0%
same,pAKT % stimulation at 5 min relative to maximum,[1],28.0%
same,EC50,[2],37 nM
same,pErbB1 % stimulation at 5 min relative to maximum,[2],95.0%
same,pErbB2 % stimulation at 5 min relative to maximum,[3],54.0%
"HRG1-β: heregulin, ErbB receptor ligand which binds to ErbB3 and ErbB4",EC50,[4],9.9 nM
same,pErbB3 % stimulation at 5 min relative to maximum,[4],100.0%
same,EC50,[1],1.9 nM
same,pAKT % stimulation at 5 min relative to maximum,[1],100.0%
same,pErbB1 % stimulation at 5 min relative to maximum,[2],0.0%
same,EC50,[3],7 nM
same,pErbB2 % stimulation at 5 min relative to maximum,[3],43.0%
same,kr1: HRG dissociation from E3,[9],0.001 s⁻¹
same,kf2: HRG binding to E3:E2 dimers,[9]; E3:E2 dimers,5.00 × 10^−11 molecules-1 sec-1
same,kr2: HRG dissociation from E3:E2 dimers,[9]; E3:E2 dimers,0.001 s⁻¹
same,kf127: HRG binding in the endosome,[9]; endosome,3.8 molecules-1 sec-1
same,kf1: HRG binding to E3 or E4,[9]; unit conversion from 1e5M-1s-1,5.00 × 10^−11 molecules-1 sec-1
"HB-EGF: heparin-binding epidermal growth factor, ErbB ligand",pErbB3 % stimulation at 5 min relative to maximum,[4],32.0%
same,pAKT % stimulation at 5 min relative to maximum,[1],20.0%
same,EC50,[2],21 nM
same,pErbB1 % stimulation at 5 min relative to maximum,[2],87.0%
same,EC50,[3],230 nM
same,pErbB2 % stimulation at 5 min relative to maximum,[3],94.0%
"TGFα: transforming growth factor alpha, ErbB1 binding ligand",EC50,[2],30 nM
heparin-binding epidermal growth factor (from UniProt Q99075 63-148) (ligand),"EC50 [nM] of pErbB1 dose response, NCI-ADRr cells",[6],21 nM
same,"EC50 [nM] of pErbB2 dose response, NCI-ADRr cells",[6],230 nM
same,"pAKT, % stimulation at 5 min relative to maximum, NCI-ADRr cells",[6],20%
same,"pErbB1, % stimulation at 5 min relative to maximum, NCI-ADRr cells",[6],87%
same,"pErbB2, % stimulation at 5 min relative to maximum, NCI-ADRr cells",[6],94%
same,"pErbB3, % stimulation at 5 min relative to maximum, NCI-ADRr cells",[6],32%
B1,"EC50 [nM] of pErbB1 dose response, NCI-ADRr cells",[6],37 nM
same,"EC50 [nM] of pErbB3 dose response, NCI-ADRr cells",[6],380 nM
same,"pAKT, % stimulation at 5 min relative to maximum, NCI-ADRr cells",[6],28%
same,"pErbB1, % stimulation at 5 min relative to maximum, NCI-ADRr cells",[6],95%
same,"pErbB2, % stimulation at 5 min relative to maximum, NCI-ADRr cells",[6],54%
same,"pErbB3, % stimulation at 5 min relative to maximum, NCI-ADRr cells",[6],17%
B2,pErbB3 % stimulation at 5 min relative to maximum,[4],3.0%
same,pAKT % stimulation at 5 min relative to maximum,[1],11.0%
same,pErbB1 % stimulation at 5 min relative to maximum,[2],12.0%
same,pErbB2 % stimulation at 5 min relative to maximum,[3],25.0%
same,"pAKT, % stimulation at 5 min relative to maximum, NCI-ADRr cells",[6],11%
same,"pErbB1, % stimulation at 5 min relative to maximum, NCI-ADRr cells",[6],12%
same,"pErbB2, % stimulation at 5 min relative to maximum, NCI-ADRr cells",[6],25%
same,"pErbB3, % stimulation at 5 min relative to maximum, NCI-ADRr cells",[6],3%
B3,"EC50 [nM] of pAKT dose response, NCI-ADRr cells",[10],1.9 nM
same,"EC50 [nM] of pErbB2 dose response, NCI-ADRr cells",[10],7 nM
same,"EC50 [nM] of pErbB3 dose response, NCI-ADRr cells",[10],9.9 nM
same,"pAKT, % stimulation at 5 min relative to maximum, NCI-ADRr cells",[10],100%
same,"pErbB1, % stimulation at 5 min relative to maximum, NCI-ADRr cells",[10],0%
same,"pErbB2, % stimulation at 5 min relative to maximum, NCI-ADRr cells",[10],43%
same,"pErbB3, % stimulation at 5 min relative to maximum, NCI-ADRr cells",[10],100%
